B1: De1: designed 93-residue protein binder to TRPV1 ARD, scaffold 1QZM, SEQ ID NO: 8 (protein)
chain: NGYSSEDKLRIAKRHLLPKQIERNALKKGELFVSEFAILGIILFYTDEAGVRGLEREISKLCRKAVKQLLLDKSTTSSHASGFHLHDYLGVMR
B2: De2: optimized version of De1, 93 residues, scaffold 1QZM, SEQ ID NO: 37 (protein)
chain: NGYWSEDKERIAKRHLLPKQIERNALKKGELKVWEFAIFGIILFYTWEAGVRGLEREISKLCRKAVKQLLLDKSTTRSWASGFHLHDYLGVMR
B3: De4: design on scaffold 2HDZ used as negative control because it cannot refold well, SEQ ID NO: 38 (protein)
chain: LPESPRFAQKIWQQSVIGDYLARFKNDRVKALKAMEDSSNNSSMHRFAEFFAKAFEDLHRYLEEL

Experiments:
TRPV1 channel [1] = experiment: FRET imaging of TRPV1-YFP and design-CFP co-expressed in HEK293 cells; format: binding; conditions: for FRET ratio max: HEK293 cells; for FRET signal between design-CFP and TRPV1-YFP: co-expressed in cells; for FRET efficiency: spectraFRET, design-CFP and TRPV1-YFP
From the text: Any design candidate can be assessed for the ability to bind TRPV1 using techniques including, but not limited to, the FRET protocols and SPR protocols described herein. For example, complementary fluorescent proteins (including, but not limited to, GFP CFP, YFP, and the like) may be fused recombinantly to a designed peptide and to TRPV1 for assessment of TRPV1 binding via FRET. In some non-limiting embodiments, binding of a candidate modulator to TRPV1 can be confirmed by observing a FRET ratio max of at least 1.25 when YFP is fused to the C-terminus of TRPV1, CFP is fused to the C-termini of a candidate peptide. In some embodiments, binding of a candidate modulator to TRPV1 can be confirmed by observing a FRET efficiency greater than about 4% (e.g., at least 5%, or at least 7%) when YFP is fused to the C-terminus of TRPV1, CFP is fused to the C-termini of a candidate peptide. FRET measurements can be made by co-expressing the FRET-labeled constructs in host cells, exciting the CFP construct in the host cells at 458 inn, and observing YFP emission at 530 nm. CFP emission can be separated from YFP emission by fitting of standard spectra acquired from cells expressing YFP or CFP only.
FRET efficiency is defined in its usual definition; it is inversely related to the sixth power of the distance between complementary fluorescent proteins on the binding partners. FRET efficiency is quantified from measurements of the fluorescence emission spectra, using the established method.
FRET ratios can be calculated from the increase in YFP emission due to energy transfer as described previously (Qiu, et al. J. Biol. Chem. 2005, 280, 24923, incorporated herein by reference in its entirety). CFP emission can be separated from YFP emission by fitting of standard spectra acquired from cells expressing only YFP or CFP. The fraction of YFP-tagged molecules that are associated with CFP-tagged molecules, Ab, is calculated as Ab=1/(1+KD/[Dfree]), where KD is the dissociation constant and [Dfree] is the concentration of free donor molecules. The FRET Ratio=1+Ab*(FRET Ratiomax−1). Regression analysis can be used to estimate Ab in individual cells. From each cell, the FRET ratioexp is experimentally determined. The predicted Ab value is then computed by adjusting two parameters, FRET Ratiomax, and apparent KD Ab was in turn used to give a predicted FRET ratiopredicted. By minimizing the squared errors (FRET ratioexp. FRET ratiopredicted)^2, KD was determined.
Apparent FRET efficiency can be calculated from the enhancement of YFP acceptor fluorescence emission due to energy transfer from the CFP donor using previously described methods. [see, e.g., Yang and Zheng, et al. Proc. Natl. Acad. Sci. U.S.A. 2010, 107 7083, which is incorporated herein by reference]. RatioA0, and RatioA1, are measured to calculate FRET efficiency. RatioA0, represents the ratio between acceptor emission intensities (in the absence of the donor) upon excitation at the donor and acceptor excitation wavelengths, and can be calculated at the YFP peak emission wavelength. A particular advantage of quantifying RatioA0 for FRET measurement is that changes in fluorescence intensity caused by many experimental factors cap be cancelled out by the ratiometric measurement:
To experimentally test whether our designed proteins work as PAM of TRPV1, we first tested whether they could interact with TRPV1 channel in live cells. We genetically fused YFP and CFP to the C termini of TRPV1 and our designs, respectively.
For spectroscopic imaging in FRET experiments, the imaging system was built upon a Nikon TE2000-U microscope. The excitation light was generated by an Ar laser. The duration of light exposure was controlled by a computer-driven mechanical shutter (Uniblitz). A spectrograph (Acton SpectraPro 2150i) was used in conjunction with a CCD camera (Roper Cascade 128B). […]

ARD of TRPV1 = molecular target: T1, ARD of TRPV1 (Rattus norvegicus, UniProt O35433); experiment: Surface plasmon resonance, ARD immobilized on CM5 sensor chip; format: binding; conditions: protein boiled to disrupt three-dimensional structure
T1 construct: made in house; host or cells: E. coli BL21 (DE3), pET-32a
From the text: To further quantify the binding affinity of the designs to the ARD, we expressed and purified both designed proteins and the ARD in E. coli. The DNA sequence of each designed protein and the ARD of TRPV1 (see their primary protein sequences in Table 6) was synthesized and inserted into the pET-32a plasmid after codon optimization for protein expression in bacteria E. coli BL21 (DE3) was transformed with the recombinant plasmids. A single colony was inoculated into media containing ampicillin; cultures were incubated in 37° C. at 200 rpm. Once cell density reached to OD 0.8-1.0 at 600 inn, IPTG was introduced for induction. SDS-PAGE was used to monitor the expression. […] The protein expression was stopped by centrifugation at 8000 rpm for 30 min. We collected cells and resuspended in resuspension solution containing 50 mM Tris-HCl, 150 mM NaCl, 10% glycerol and protease inhibitor (pH 7.4). The cells were lysed by sonication. The supernatant after centrifugation was kept for future purifications. Taget proteins were obtained by Ni column, and then further purified by the reversed phase HPLC on a Jupiter C4 column (10×250 mm, Phenomenex, Torrance, CA, USA). […]
We then quantified the binding of De1 and De3 to the ARD protein fixed on the sensor chip by surface plasma resonance (SPR) (FIGS. 6A and 6B). […] Steady-state SPR responses were measured and used to determine the KD values. […]

TRPV1 [2] = experiment: Calcium imaging (Fluo-4) of capsaicin activation in transfected HEK293 cells; format: cell-based; conditions: 0.5 nM capsaicin; design co-expressed with TRPV1
Description: We then investigated whether, upon binding of the designed proteins, TRPV1 activation was positively modulated. […] Probenecid (2 mM) was included in all solutions to prevent Fluo-4 leakage from cells. At the end of incubation, cells were washed three times with ECS and incubated in the same solution for another 20 min at room temperature to complete the intracellular hydrolysis process of the AM ester, which converts the non-fluorescent Fluo-4/AM into the fluorescent version Fluo-4.
Coverslip with dye-loaded cells was placed in the quick-release magnetic chamber (Warner) and mounted on the stage of a Nikon Eclipse TE2000-U microscope system equipped with a Roper Cascade 128B CCD camera. Fluo-4 was excited by an Argon laser with a filter set of Z488/10 (excitation), z488rdc (dichroic) and recorded through an emission filter HQ5001p (all from Chroma). The duration of light exposure was controlled by a computer-driven mechanical shutter (Uniblitz). Cell images were acquired sequentially with an exposure period of 200 ms at an interval of 1 s. The shutter and the camera were controlled and synchronized by MetaMorph software (Universal Imaging).

TRPV1 [3] = molecular target: T2, TRPV1 (UniProt Q704Y3); experiment: Whole-cell patch-clamp recordings of capsaicin activation, desensitization and tachyphylaxis; format: cell-based; conditions: design co-expressed with TRPV1; for acute current desensitization upon capsaicin activation: extracellular calcium present
T2 construct: other: TRPV1 alone; absence of extracellular calcium; other: design co-expressed with TRPV1; extracellular calcium p; repeated caps; fused on or other part: Possibly YFP at the C-terminus
Description: Patch-clamp recordings were performed with a HEKA EPC10 amplifier controlled by PatchMaster software (HEKA). Whole-cell recordings at ±80 mV were used to test whether an ANAP-incorporated channel was functional. Patch pipettes were prepared from borosilicate glass and fire-polished to resistance of ˜4 MΩ. For whole-cell recording, serial resistance was compensated by 60%. A solution with […], 10 mM glucose, 0.2 mM EDTA and 3 mM HEPES (pH 7.2) was used in both bath and pipette for concentration response curve measurements in TRPV1, TRPV2 and TRPV3. To measure calcium-dependent ligand-induced desensitization and tachyphylaxis, 2 mM CaCl2 was added to the solution. Membrane potential was clamped at ±80 mV. Current was sampled at 10 kHz and filtered at 2.9 kHz. All recordings were performed at room temperature (22° C.) with the maximum variation of 1° C.
Ligands were perfused to membrane patch by a gravity-driven system (RSC-200, Bio-Logic). Bath and ligand solution were delivered through separate tubes to minimize the mixing of solutions. Patch pipette was placed in front of the perfusion tube outlet.

TRPV1 channel [4] = experiment: Airyscan super resolution imaging of TRPV1-YFP and De1-CFP in HEK293 cells; format: cell-based; conditions: co-transfected HEK293 cells
Description: Super-resolution fluorescence microscopy was performed with the Zeiss LSM 880 fluorescence microscope with Airyscan. YFP fused to TRPV1 and CFP fused to the designed proteins were excited by laser line at 488 nm and 458 nm, respectively. We used a 60× oil-immersion objective (NA 1.42) in these experiments. Fluorescence imaging was performed with the default settings for CFP and YFP channels in the microscope controlled by the Zeiss ZEN software. Overlay of YFP- and CFP-channel images was also done in ZEN.

T1 sequence (O35433 with tags, fused parts or gaps): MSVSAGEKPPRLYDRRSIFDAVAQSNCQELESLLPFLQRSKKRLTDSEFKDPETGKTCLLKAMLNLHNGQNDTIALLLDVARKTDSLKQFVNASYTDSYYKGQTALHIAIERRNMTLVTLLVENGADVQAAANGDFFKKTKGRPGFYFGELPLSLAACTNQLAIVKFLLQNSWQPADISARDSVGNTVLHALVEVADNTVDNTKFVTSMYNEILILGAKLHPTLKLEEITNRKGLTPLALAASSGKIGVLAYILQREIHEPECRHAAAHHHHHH

Row | Molecule | FRET ratio max (TRPV1 channel [1]) | FRET signal between design-CFP and TRPV1-YFP (TRPV1 channel [1]) | binding with the ARD after boiling of the protein (ARD of TRPV1) | activation of TRPV1 by low capsaicin concentration when co-expressed with design (TRPV1 [2]) | acute current desensitization upon capsaicin activation (TRPV1 [3]) | capsaicin induced tachyphylaxis (TRPV1 [3]; repeated capsaicin application) | co-localization with TRPV1 on cell membrane (TRPV1 channel [4]) | FRET efficiency (TRPV1 channel [1])
1 | B1 | 3.86 | positive FRET signals | completely abolished | sufficient to activate TRPV1 channels | significantly slowed down | capsaicin induced tachyphylaxis was reduced | clear co-localization | –
2 | B2 | 2.35 | positive FRET signals | – | – | no such an effect was observed | – | – | 7.4%
3 | B3 | – | no FRET occurred | – | – | no such an effect was observed | – | – | 3.8%
